We go through 23 molecules from US11814447B2, “Peptide ligands for binding to EphA2” (BICYCLERD LIMITED, priority 2018, dated 2023).

Starred links: 1 amine or outer side, 2 acyl side, 3 side chain; linkers in the order of their positions; H or OH if unused. Positions of bridges follow the written chain, without caps; N, C: chain ends. Non-standard residues stand in square brackets, D forms with d. No end group written: not given here. 1Nal = N[C@@H](Cc1cccc2ccccc12)C(=O)O; TBMB = c1c(C[*:1])cc(C[*:3])cc1C[*:2]; Gly(cPent) = N[C@H](C(=O)O)C1CCCC1; hArg = N=C(N)NCCCC[C@H](N)C(=O)O; Tle = CC(C)(C)[C@H](N)C(=O)O; Aib = CC(C)(N)C(=O)O; βAla = NCCC(=O)O; Sar = CNCC(=O)O

One may read the Ki as the dissociation constant of the complex between target and ligand, obtained from inhibition or displacement. A low value points to higher affinity.

In this test the target is Human EphA2 (Ecto) (Human) (UniProt P29317). Briefly: FP competition, tracer Compound 18.
Chain of Human EphA2 (Ecto) (Human) (P29317 24-537): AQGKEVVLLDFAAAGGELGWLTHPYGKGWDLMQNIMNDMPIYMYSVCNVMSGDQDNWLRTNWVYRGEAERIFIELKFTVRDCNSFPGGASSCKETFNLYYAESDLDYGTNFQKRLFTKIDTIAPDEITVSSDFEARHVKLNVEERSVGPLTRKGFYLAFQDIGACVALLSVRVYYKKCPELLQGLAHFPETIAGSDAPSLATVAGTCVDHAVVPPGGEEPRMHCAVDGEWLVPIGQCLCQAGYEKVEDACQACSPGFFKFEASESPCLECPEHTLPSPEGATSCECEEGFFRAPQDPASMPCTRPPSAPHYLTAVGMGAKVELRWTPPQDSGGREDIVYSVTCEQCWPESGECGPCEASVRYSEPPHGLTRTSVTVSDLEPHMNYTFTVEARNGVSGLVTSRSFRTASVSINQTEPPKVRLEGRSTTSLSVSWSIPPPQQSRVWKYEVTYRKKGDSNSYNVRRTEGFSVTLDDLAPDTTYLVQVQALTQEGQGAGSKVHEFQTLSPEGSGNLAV
As to [βAla][Sar][Sar][Sar][Sar][Sar][Sar][Sar][Sar][Sar][Sar]H[dD][Gly(cPent)]TCP[1Nal]G[Aib]F[1Nal]CP[Tle]N[hArg]P[dD]C (linker 16-23-30 via TBMB) [Bicycle Compound 280], the inhibition constant (Ki) was 0.64 nM.
[βAla][Sar][Sar][Sar][Sar][Sar][Sar][Sar][Sar][Sar][Sar]H[dD]VPCP[1Nal]G[Aib]F[1Nal]CP[Tle]N[hArg][Aib][dD]C (linker 16-23-30 via TBMB) [Bicycle Compound 259] gave a Ki of 0.91 nM.
As for [βAla][Sar][Sar][Sar][Sar][Sar][Sar][Sar][Sar][Sar][Sar]H[dD]VPC[Aib][1Nal]G[Aib]FWCP[Tle]N[hArg]P[dD]C (linker 16-23-30 via TBMB) [Bicycle Compound 242], the figure is 7.77 nM; as for [βAla][Sar][Sar][Sar][Sar][Sar][Sar][Sar][Sar][Sar][Sar]H[dD]VPCPWG[Aib]F[1Nal]CP[Tle]N[hArg]P[dD]C (linker 16-23-30 via TBMB) [Bicycle Compound 269], 1.11 nM; as for [βAla][Sar][Sar][Sar][Sar][Sar][Sar][Sar][Sar][Sar][Sar]H[dD]VPC[Aib]WGP[hArg]WCP[Tle]N[hArg]P[dD]C (linker 16-23-30 via TBMB) [Bicycle Compound 246], 31.4 nM.
As for Ac-[Sar][Sar]H[dD]VPCP[1Nal]G[Aib]F[1Nal]CP[Tle]N[hArg]PGC (linker 7-14-21 via TBMB) [Bicycle Compound 253], the figure is 0.85 nM; as for [βAla][Sar][Sar][Sar][Sar][Sar][Sar][Sar][Sar][Sar][Sar]H[dD]VPC[dA][1Nal]G[Aib]F[1Nal]CP[Tle]N[hArg]P[dD]C (linker 16-23-30 via TBMB) [Bicycle Compound 248], 28.4 nM; as for [βAla][Sar][Sar][Sar][Sar][Sar][Sar][Sar][Sar][Sar][Sar]H[dD]VPCPWGP[hArg]WCP[Tle]N[hArg]P[dD]C (linker 16-23-30 via TBMB) [Bicycle Compound 272], 3.99 nM.
The value for [βAla][Sar][Sar][Sar][Sar][Sar][Sar][Sar][Sar][Sar][Sar]H[dD]VPC[Aib][1Nal]GP[hArg][1Nal]CP[Tle]NR[Aib]GC (linker 16-23-30 via TBMB) [Bicycle Compound 243] was 2.83 nM.
On to [βAla][Sar][Sar][Sar][Sar][Sar][Sar][Sar][Sar][Sar][Sar]H[dD][Gly(cPent)]PC[Aib]WG[Aib]FWCP[Tle]NR[Aib][dD]C (linker 16-23-30 via TBMB) [Bicycle Compound 275], for which the inhibition constant Ki was 15.9 nM.
The value for [βAla][Sar][Sar][Sar][Sar][Sar][Sar][Sar][Sar][Sar][Sar]H[dD]VPCP[1Nal]G[Aib]F[1Nal]CP[Tle]NRPGC (linker 16-23-30 via TBMB) [Bicycle Compound 252] was 0.37 nM; that for [βAla][Sar][Sar][Sar][Sar][Sar][Sar][Sar][Sar][Sar][Sar]H[dD][Gly(cPent)]PCP[1Nal]G[Aib]F[1Nal]CP[Tle]NR[Aib]GC (linker 16-23-30 via TBMB) [Bicycle Compound 278] was 0.46 nM.
The value for [βAla][Sar][Sar][Sar][Sar][Sar][Sar][Sar][Sar][Sar][Sar]H[dD]VPCPWG[Aib]FWCP[Tle]N[hArg]P[dD]C (linker 16-23-30 via TBMB) [Bicycle Compound 271] was 3.66 nM.
As for Ac-[Sar][Sar]H[dD]VTCP[1Nal]G[Aib]F[1Nal]CP[Tle]NR[Aib]GC (linker 7-14-21 via TBMB) [Bicycle Compound 285], the figure is 1.21 nM; as for [βAla][Sar][Sar][Sar][Sar][Sar][Sar][Sar][Sar][Sar][Sar]H[dD]VPCP[1Nal]G[Aib][hArg][1Nal]CP[Tle]NR[Aib]GC (linker 16-23-30 via TBMB) [Bicycle Compound 249], 1.38 nM; as for [βAla][Sar][Sar][Sar][Sar][Sar][Sar][Sar][Sar][Sar][Sar]H[dD]VPC[Aib]WGP[hArg]WCP[Tle]N[hArg]P[dD]C (linker 16-23-30 via TBMB) [Bicycle Compound 247], 29.7 nM.
As to [βAla][Sar][Sar][Sar][Sar][Sar][Sar][Sar][Sar][Sar][Sar]H[dD]VPC[Aib][1Nal]G[Aib]F[1Nal]CP[Tle]NR[Aib]GC (linker 16-23-30 via TBMB) [Bicycle Compound 239], the inhibition constant Ki is 4.91 nM.
[βAla][Sar][Sar][Sar][Sar][Sar][Sar][Sar][Sar][Sar][Sar]H[dD]VPC[Aib][1Nal]GP[hArg][1Nal]CP[Tle]N[hArg]P[dD]C (linker 16-23-30 via TBMB) [Bicycle Compound 244] registered an inhibition constant Ki of 2.8 nM.
The value for [βAla][Sar][Sar][Sar][Sar][Sar][Sar][Sar][Sar][Sar][Sar]H[dD]VPCP[1Nal]G[Aib]FWCP[Tle]N[hArg]P[dD]C (linker 16-23-30 via TBMB) [Bicycle Compound 265] was 1.55 nM; that for [βAla][Sar][Sar][Sar][Sar][Sar][Sar][Sar][Sar][Sar][Sar]H[dD]VPCP[1Nal]G[Aib][hArg][1Nal]CP[Tle]NR[Aib][dD]C (linker 16-23-30 via TBMB) [Bicycle Compound 250] was 1.48 nM; that for [βAla][Sar][Sar][Sar][Sar][Sar][Sar][Sar][Sar][Sar][Sar]H[dD]VPCP[1Nal]G[Aib][hArg][1Nal]CP[Tle]N[hArg]P[dD]C (linker 16-23-30 via TBMB) [Bicycle Compound 251] was 1.93 nM.
With [βAla][Sar][Sar][Sar][Sar][Sar][Sar][Sar][Sar][Sar][Sar]H[dD]VPCP[1Nal]G[Aib]F[1Nal]CP[Tle]N[hArg]PGC (linker 16-23-30 via TBMB) [Bicycle Compound 257], the Ki was 1.07 nM.
For [βAla][Sar][Sar][Sar][Sar][Sar][Sar][Sar][Sar][Sar][Sar]H[dD][Gly(cPent)]TCP[1Nal]G[Aib]F[1Nal]CP[Tle]NR[Aib]GC (linker 16-23-30 via TBMB) [Bicycle Compound 279], the Ki amounted to 0.59 nM.
